Consider 1 molecule from US20180282426A1 (NOVIMMUNE S A, published 2018).

Experiment [1] addresses T1, recombinant soluble MD-2 purified from baculovirus-infected insect cell supernatants (UniProt Q9Y6Y9 19-160).
T1 construct: Expressed in Sf9 cells, purified on NiNTA, coated at 5 ug/ml in the direct ELISA; not shown: C-terminal FLAG and 6xHIS tags
T1 sequence (looked up): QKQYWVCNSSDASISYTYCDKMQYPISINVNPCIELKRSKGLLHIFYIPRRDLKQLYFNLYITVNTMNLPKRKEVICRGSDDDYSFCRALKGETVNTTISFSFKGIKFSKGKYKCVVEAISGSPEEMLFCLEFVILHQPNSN
The experiment can be described thus: direct ELISA, MD-2 coated at 5 ug/ml. The method, then:
Recombinant soluble MD-2 with C terminal FLAG and histidine epitope tags was coated at a concentration of 5 μg/ml in 50 μl PBS on ELISA plates (Nunc Maxisorp). Wells were blocked with 200 μl PBS 2% BSA and subsequently incubated with the appropriate MAb at the indicated concentration in PBS 1% BSA. Following 3 wash steps with PBS 0.05% Tween 20, 50 μl HRP conjugated goat anti-mouse IgG (H+L) at a 1:5000 dilution was added to the wells. […] Plates were read at a wavelength of 650 nm.
Using direct ELISA, no binding of 18H10 to recombinant soluble MD-2 generated with the baculovirus expression system was detected (FIG. 5a).
Background: An ELISA detects its analyte on a solid surface through an enzyme-linked reagent.

The target in experiment [2] is T2, human TLR4 and human MD-2 on transiently transfected HEK 293 cells (human, UniProt O00206 24-839; Q9Y6Y9 19-160).
T2 construct: whole, on cells; also called human TLR4/MD-2 complex
T2 sequence (O00206 24-839, one chain of several): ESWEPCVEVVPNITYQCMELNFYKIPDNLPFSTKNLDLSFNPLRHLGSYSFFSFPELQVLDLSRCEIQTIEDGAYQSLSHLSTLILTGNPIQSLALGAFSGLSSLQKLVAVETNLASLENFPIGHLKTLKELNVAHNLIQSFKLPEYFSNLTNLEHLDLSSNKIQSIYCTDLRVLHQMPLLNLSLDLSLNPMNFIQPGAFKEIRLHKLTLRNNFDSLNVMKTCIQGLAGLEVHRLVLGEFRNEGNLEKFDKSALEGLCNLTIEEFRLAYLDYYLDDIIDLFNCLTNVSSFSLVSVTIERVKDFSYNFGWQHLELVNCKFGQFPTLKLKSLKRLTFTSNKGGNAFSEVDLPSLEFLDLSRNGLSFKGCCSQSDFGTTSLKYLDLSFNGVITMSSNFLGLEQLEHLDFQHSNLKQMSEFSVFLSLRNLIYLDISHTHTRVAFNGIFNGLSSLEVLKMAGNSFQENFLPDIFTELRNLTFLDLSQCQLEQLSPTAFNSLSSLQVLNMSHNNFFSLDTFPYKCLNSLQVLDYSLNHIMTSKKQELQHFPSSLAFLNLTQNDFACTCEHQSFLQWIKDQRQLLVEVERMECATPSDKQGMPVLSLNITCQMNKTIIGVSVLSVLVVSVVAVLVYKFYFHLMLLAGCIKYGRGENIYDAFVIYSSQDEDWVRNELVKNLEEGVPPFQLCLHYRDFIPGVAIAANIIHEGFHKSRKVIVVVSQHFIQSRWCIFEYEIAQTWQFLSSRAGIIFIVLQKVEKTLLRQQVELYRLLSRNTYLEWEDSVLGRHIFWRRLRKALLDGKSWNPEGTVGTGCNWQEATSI
The experiment can be described thus: FACS on transiently transfected HEK 293 cells. The method, then:
FIGS. 4A-4L are a series of graphs depicting the specificity of the 18H10 monoclonal antibody for MD-2. The specificity of the 18H10 antibody is shown by flow cytometry analysis of HEK 293 cells transiently transfected with either human TLR4 and human MD-2 (FIG. 4A, FIG. 4E and FIG. 4I); rabbit TLR4 and rabbit MD-2 (FIG. 4B, FIG. 4F and FIG. 4J); human TLR4 and rabbit MD-2 (FIG. 4C, FIG. 4G and FIG. 4K); or rabbit TLR4 and human MD-2 (FIG. 4D, FIG. 4H and FIG. 4L). Cells were incubated with either α-FLAG™ antibody (to detect TLR4 expression); α-C-myc antibody (to detect MD-2 expression) or the 18H10 monoclonal antibody, followed by an APC-coupled α-mouse (H+L) antibody.
FIGS. 12A-12L is a series of graphs depicting the specificity of the 16G7 monoclonal antibody for TLR4. […]
HEK 293 cells were plated in 6 well plates at a density of 2.5×10⁵ cells/well in 2 ml culture medium containing 10% FBS. […] 48 hours post-transfection, cells were stained with the appropriate monoclonal antibody (as indicated in FIGS. 4A-4L) and an APC-coupled goat anti-mouse IgG (H+L) antibody (Molecular Probes) and analyzed using the FACScalibur in the FL-4 channel.

Experiment [3] concerns the target T3, human TLR4/MD-2 complex in transfected HEK 293 cells (FLAG-TLR4 with MD-2-FLAG-6xHis) (human, UniProt O00206 24-839; Q9Y6Y9 19-160).
T3 construct: whole, on cells; also called TLR4/MD-2 transfected HEK 293 cells; hTLR4/MD-2 transfected HEK 293 cells
In words: sandwich ELISA, capture on anti-FLAG M2, biotinylated 18H10 with streptavidin-HRP. The method, then:
(§1) For sample preparation, HEK 293 cells were transfected with the appropriate plasmid constructs using the Fugene 6™ transfection reagent as described in paragraph G above. 48 hours post-transfection, cells were collected and cleared by centrifugation. Cells were subsequently incubated with biotinylated 18H10 (10 μg/ml) and lysed in 20 mM Tris pH 7.4, 150 mM NaCl, 1% NP40 containing COMPLETE™ protease inhibitors (Roche).
(§2) To perform the sandwich ELISA, Nunc maxisorp plate wells were coated with 50 μl of the anti-FLAG™ M2 MAb (Sigma) at a concentration of 5 μg/ml in PBS. Wells were blocked with 200 μl PBS 2% BSA and subsequently incubated with 50 μl of the appropriate samples at the indicated dilution. Wells were washed three times with 200 μl PBS 0.05% Tween 20 and incubated with 50 μl of the appropriate antibody (10 μg/ml for biotinylated 18H10 and 12D4, 1 μg/ml for the polyclonal anti-MD-2 […]). Following a wash step as above, wells were incubated with 50 μl of the appropriate detection antibody (HRP conjugated streptavidin at a dilution of 1:1500 for the biotinylated MAbs and HRP conjugated anti-rabbit IgG (H+L) at a dilution of 1:5000 for the polyclonal rabbit Ab). […] Plates were read at a wavelength of 650 nm.

Experiment [4] concerns the target T4, MD-2 alone in transfected HEK 293 cell lysates/supernatants (UniProt Q9Y6Y9 19-160, limits assumed).
T4 construct: not shown: C-terminal FLAG and 6x Histidine tags
T4 sequence (looked up): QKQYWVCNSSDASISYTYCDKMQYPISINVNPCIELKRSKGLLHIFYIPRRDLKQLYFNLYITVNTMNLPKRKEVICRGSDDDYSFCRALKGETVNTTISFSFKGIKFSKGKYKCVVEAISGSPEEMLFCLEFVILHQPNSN
The experiment can be described thus: sandwich ELISA, capture on anti-FLAG M2, biotinylated 18H10. As to the method: as §1, §2

The target in experiment [5] is T5, human TLR4 alone in transfected HEK 293 cells (human, UniProt O00206 24-839).
T5 construct: whole, on cells; also called TLR4 alone in transfected cell lysates
T5 sequence (O00206 24-839): as the sequence (O00206 24-839, one chain of several) above
Described as above. The method, then: as §1, §2

The target in experiment [6] is T6, human TLR4/MD-2 complex on the surface of transfected CHO cells (human, UniProt O00206 24-839; Q9Y6Y9 19-160).
T6 construct: whole, on cells; also called TLR4/MD-2 transfected CHO cells; hTLR4/MD-2 transfected CHO cells
T6 sequence (O00206 24-839, one chain of several): as the sequence (O00206 24-839, one chain of several) above
The experiment can be described thus: flow cytometry, mock transfected vs. TLR4/MD-2 transfected cells. (In general: Flow cytometry measures light scatter and fluorescence of single cells or particles in a stream.)

T3 sequence (O00206 24-839, one chain of several): as the sequence (O00206 24-839, one chain of several) above

B1: 18H10 monoclonal antibody (antibody, IgG2b, V domains shown)
VH: QVQLQQSGADLVRPGALVKLSCTASGFNIKDSYIHWVKKRPEWGLEWIGWTDPENVNSIYDPRFQGKASITADTSSNTAFLQLTSLTSEDTAVYYCARGYNGVYYAMDYWGQGTTVTVSS
VL: QIVLTQSPSIMSASLGEEITLTCSASSSVIYMHWYQQKSGTSPKLLIYRTYNLASGVPSRFSGSGSGTFYSLTISSVEAEDAADYYCHQWSSFPYTFGGGTKLEIKR
notes: also called 18H10 MAb; 18H10 mouse MAb
Regarding B1, the binding result in experiment [1] was “no binding”; in experiment [2], “binds”; in experiment [3], “binds”; in experiment [4], “no binding (tested: 10 µg/ml biotinylated 18H10)”; in experiment [5] it was “no binding (tested: 10 µg/ml biotinylated 18H10)”; in experiment [6], “binds”.
